Where “and” joins values, the source holds several entries; their conditions need not be identical. Equal entries are not always repeated. Entries after “also recorded” stand apart in the source; their conditions may differ. Where two headings read alike, the source gives them in different places.
Legend:
Cys30 [1] = target: Cys30 (UniProt position 49, FFSFFCPHCYQ); details: not stated; cited from earlier work
[2] = target: Klebsiella pneumoniae DsbA (K. pneumoniae); assay: ITC; peptide (3 mM) titrated into 100 μM DsbA in the cell; 25 mM HEPES, 50 mM NaCl, pH 7.4, DMSO 0.8 %; 25 °C by the methods (20 °C by the footnote of Table 4); single-site binding model; apparent Kd; triplicate
Cys30 [3] = target: Cys30 (UniProt position 49, FFSFYCPHCNT); details: not stated; cited from earlier work
Cys30 [4] = target: T1, Cys30 (UniProt position 49, FFSFYCPHCYQ); assay: UV-vis; details: 22 °C; 200 mM KCl plus buffer salts (total ionic strength not stated); 10 mM Tris, 10 mM sodium citrate, 10 mM K2HPO4, 10 mM KH2PO4, 200 mM KCl, 1 mM EDTA; Reduced KpDsbA (40 μM), with oxidised KpDsbA as reference
KpDsbA = assay: ITC binding of DsbB-derived peptides to KpDsbA; design: species or system K. pneumoniae
Method: Amidation and acetylation ensure that there are no charges on the peptide termini, as these are not present in the native DsbB loop sequence. Binding affinity was measured using a MicroCal™ Auto-iTC200 from (GE Healthcare, USA) at 25 °C. The sample cell was loaded with 200 μL of 100 μM KpDsbA or EcDsbA in 25 mM HEPES, 50 mM NaCl, pH 7.4, and DMSO 0.8 %. The peptide (3 mM) diluted in the same buffer was titrated with an initial injection of 0.5 μL into DsbA, followed by 19 consecutive injections (2.0 μL) offset by 180 s, while the solution was constantly stirred (1000 rpm). Data were fitted to a single-site binding model using MicroCal™ Origin 7.0 software (Origin 7 SR4 v7.0552). Experiments were conducted in triplicate and affinity and thermodynamic parameters are reported as means and standard deviations (Table 4).

Cys30 [5] = target: T1, Cys30; details: not stated; cited from earlier work
[6] = SeDsbA, cited from earlier work
Text: The past 5 years has seen the characterization of DsbA enzymes from many other bacteria including DsbAs with varying degrees of sequence identity to EcDsbA such as Neisseria meningitidis DsbA1 (NmDsbA1, 23% identity), Pseudomonas aerugin ... || EcDsbA and SeDsbA share 86 % sequence identity and both have been characterized previously. […] Both are similarly oxidizing enzymes: the redox potentials of EcDsbA and SeDsbA are -122 and -126 mV, respectively, whereas the range for all DsbAs is -80 to -163 mV (Table 1 ). In b ... || (+ 1 further places)

insulin [7] = details: cited from earlier work
[8] = Temperature-induced unfolding by far-UV CD; format: physicochemical
Method: Temperature-induced unfolding of native SeDsbA and KpDsbA was determined as described previously using a Jasco J-810 circular dichroism (CD) spectropolarimeter (Jasco, USA). The redox state of the protein was confirmed using Ellman’s reagent. The largest difference in molar ellipticity for oxidized or reduced enzymes was calculated from initial far-UV CD spectra (from 250 nm to 190 nm) recorded at 25 °C and 95 °C, respectively. The unfolding of oxidized and reduced protein (SeDsbAox = 220 nm, SeDsbAred = 220.5 nm and KpDsbAox = 211 nm, KpDsbAred = 209.5 nm) was monitored at a heat rate of 1 K / min from 298 K to 368 K in a 1 mm quartz cuvette. All measurements were carried out with 10 µM protein in 100 mM NaH2PO4 / Na2HPO4, 1 mM EDTA at pH 7.0. Samples for measurement of reduced enzyme contained 0.75 mM DTT. Raw data were analyzed in Prism and fitted to a two-state unfolding model as described previously. The standard deviation was measured from three replicates.

[9] = In vitro peptide dithiol oxidation (europium fluorescence); format: biochemical; details: pH 5.5
Method: A peptide ([…]) with a 1,4,7,10-tetraazacyclododecane-1,4,7,10-tetraacetic acid (DOTA) group amide-coupled to the N-terminus, and a methylcoumarin amide-coupled to the ε-amino group of the C-terminal lysine, was purchased from AnaSpec (Fremont, CA). Lyophilized peptide was re-suspended in 100 mM imidazole, pH 6, at a concentration of 2 mM. Europium trifluoromethanesulfonate (Sigma Aldrich, Australia) solution (100 mM) was added to the peptide at a molar ratio of 2:1 and incubated for 5 min at room temperature, to allow europium chelation. The peptide solution was then immediately aliquoted, flash frozen in liquid nitrogen and stored at -80°C. An increase in fluorescence occurs upon oxidation of the peptide cysteines to form a disulfide. Thus, fluorescence can be used to monitor the capacity of DsbA enzymes to catalyse dithiol oxidation.
Assays were conducted using a Synergy H1 multimode plate reader (BioTek, USA) with the excitation wavelength set to 340 nm and emission to 615 nm. A 150 μs delay before reading and 100 μs reading time were used for time-resolved fluorescence. The assay was performed in a white 384-well plate (Perkin Elmer OptiPlate-384, Part #: 6007290). The buffer consisted of 50 mM MES, 50 mM NaCl and 2 mM EDTA at pH 5.5. The reaction consisted of a 50 μL solution in each well, containing 160 nM EcDsbA, KpDsbA or SeDsbA, 1.6 μM EcDsbB (crude membrane extracts, containing ubiquinone) and 8 μM peptide substrate added last to initiate the reaction. Samples containing buffer and DsbA or buffer and peptide were used as controls. Data were measured for three replicates and are presented as mean values, with the standard error of the mean indicated by error bars.

[10] = tested on: E. coli dsbA- null (JCB817); details: SeDsbA, null mutant motility assay; ref [44]; cited from earlier work
insulin [11] = assay: Insulin disulfide reductase activity; format: biochemical; details: 10 μM enzyme, 0.33 mM DTT, 2 mM EDTA, 100 mM phosphate pH 7.0, 0.131 mM insulin; OD650nm turbidity; three repeats
Method: Under mild reducing conditions, DsbA proteins can reduce the intermolecular disulfide bonds formed between insulin chains A and B [3]. The rate of disulfide bond reduction can be spectroscopically followed at OD650nm by an increase in turbidity resulting from production of the insoluble insulin chain B [20]. Samples were prepared in 1 cm cuvettes containing 10 μM of protein (KpDsbA, EcDsbA or EcDsbC), 0.33 mM DTT and 2 mM EDTA in 100 mM NaH2PO4 / Na2HPO4 titrated to pH 7.0. Catalysis was initiated by the addition of 0.131 mM insulin (I0516, Sigma-Aldrich, Australia) to the sample mixture. The assay was repeated three times and data were plotted showing standard deviations.

Escherichia coli DsbA = target: T2, Escherichia coli DsbA (E. coli, UniProt P0AEG4 20-208); assay: ITC; peptide (3 mM) titrated into 100 μM DsbA in the cell; 25 mM HEPES, 50 mM NaCl, pH 7.4, DMSO 0.8 %; 25 °C by the methods (20 °C by the footnote of Table 4); single-site binding model; apparent Kd; triplicate; details: both partners purified
T2 construct: also called EcDsbA; E. coli DsbA; source: purified as described for KpDsbA (BL21(DE3)pLys, Talon resin, TEV protease, Superdex75)
T2 sequence (looked up): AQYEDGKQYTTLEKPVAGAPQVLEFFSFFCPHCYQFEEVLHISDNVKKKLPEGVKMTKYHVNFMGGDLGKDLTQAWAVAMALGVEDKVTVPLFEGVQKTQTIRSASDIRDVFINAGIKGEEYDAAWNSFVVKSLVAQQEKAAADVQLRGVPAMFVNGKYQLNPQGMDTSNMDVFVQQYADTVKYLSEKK

DsbA (EcDsbA) (Escherichia coli (K-12))
pKa (Cys30 [1]): 3.3

KpDsbB P2 loop peptide PSPFQTCD
Kd [2]: 16.7 µM
dH [2]: -11.1 kcal/mol
stoichiometry N [2]: 0.97

DsbA (VcDsbA, TcpG) (Vibrio cholerae)
pKa (Cys30 [3]): 5.1

DsbA (thiol:disulfide interchange protein DsbA), KpDsbA (Klebsiella pneumoniae (strain 342))
pKa (Cys30 [4]): 3.2

CC(=O)N1CCC[C@H]1C(=O)N[C@@H](CO)C(=O)N1CCC[C@H]1C(=O)N[C@@H](Cc1ccccc1)C(=O)N[C@@H](C)C(=O)N[C@H](C(=O)N[C@@H](CS)C(=O)N[C@@H](CC(=O)O)C(N)=O)[C@@H](C)O
Kd (KpDsbA; ITC (Auto-iTC200), cell 100 μM KpDsbA, peptide 3 mM, 25 mM HEPES, 50 mM NaCl, pH 7.4, DMSO 0.8 %, 25 °C in method, 20 °C in table footnote, single-site model, apparent Kd, mean ± SD, three independent experiments, read-out: Kd): 17.9 ± 1.5 µM
Kd (KpDsbA; ITC, range stated for KpDsbA and EcDsbA with PSPFATCD and PSPFQTCD together, read-out: Kd (range over both peptides and both DsbAs)): 11 to 18 µM

EcDsbB P2 loop peptide PSPFATCD
Kd [2]: 17.9 µM
dH [2]: -9.5 kcal/mol
stoichiometry N [2]: 0.93

DsbA (SeDsbA) (Salmonella enterica serovar Typhimurium (strain SL1344))
pKa (Cys30 [5]): 3.3

B1: SeDsbA: S. enterica Typhimurium DsbA (AAB81592) (protein)
chain: AQISDGKQYITLDKPVAGEPQVLEFFSFYCPHCYQFEEVLHVSDNVKKKLPEGTKMTKYHVEFLGPLGKELTQAWAVAMALGVEDKVTVPLFEAVQKTQTVQSAADIRKVFVDAGVKGEDYDAAWNSFVVKSLVAQQEKAAADLQLQGVPAMFVNGKYQINPQGMDTSSMDVFVQQYADTVKYLVDKK
modifications: left off: His6 (inferred: purified as described for KpDsbA), N-terminal, cleaved
E°’ (redox potential) ([6]; Table 1, ref [43] and [14]): -126 mV
pKa “Cys30” ([6]; Table 1 and comparison, ref [43] and [14]): 3.3
pKa of nucleophilic cysteine ([6]; ref [43]): 3.3
redox potential ([6]; ref [43]): -126 mV
insulin reductase activity (insulin [7]): weak disulfide reductants; also recorded: weak insulin reductase activity
Tm reduced ([8]; 10 µM protein, 100 mM phosphate, 1 mM EDTA, pH 7.0, 0.75 mM DTT, 1 K/min 298-368 K, SeDsbA 220.5 nm, KpDsbA 209.5 nm, two-state fit, SD from three replicates): 351 K and 351.2 ± 0.2 K and 351.2 +/- 0.2 K
Tm oxidized ([8]; 10 µM protein, 100 mM phosphate, 1 mM EDTA, pH 7.0, 1 K/min 298-368 K, SeDsbA 220 nm, KpDsbA 211 nm, two-state fit, SD from three replicates): 342.8 ± 0.4 K and 342.8 +/- 0.4 K and 343 K
stabilisation of reduced over oxidized form ([8]; SeDsbA, difference of melting temperatures): 9 K
dithiol oxidation signal without EcDsbB ([9]; samples lacking EcDsbB, DsbA plus peptide, time-resolved fluorescence): no increase in signal
rate of catalyzed disulfide bond formation ([9]; with EcDsbB, 160 nM DsbA, 1.6 μM EcDsbB membrane extract, 8 μM peptide, 50 mM MES, 50 mM NaCl, 2 mM EDTA, time-resolved fluorescence 340/615 nm, three replicates): almost indistinguishable from that of EcDsbA
complementation of EcDsbA, motility [10]: can complement EcDsbA; also recorded: can fully restore the motility of dsbA ^- deficient strains

B2: EcDsbC: E. coli disulfide isomerase DsbC (AAA83074) (protein, UniProt P0AEG6 21-236, looked up)
Thiol:disulfide interchange …: DDAAIQQTLAKMGIKSSDIQPAPVAGMKTVLTNSGVLYITDDGKHIIQGPMYDVSGTAPVNVTNKMLLKQLNALEKEMIVYKAPQEKHVITVFTDITCGYCHKLHEQMADYNALGITVRYLAFPRQGLDSDAEKEMKAIWCAKDKNKAFDDVMAGKSVAPASCDVDIADHYALGVQLGVSGTPAVVLSNGTLVPGYQPPKEMKEFLDEHQKMTSGK
insulin disulfide reductase activity (insulin [11]): highly active

B3: KpDsbB P2 loop peptide PSPFQTCD (peptide)
peptide: Ac-PSPFQTCD-NH2
notes: P2 loop of K. pneumoniae DsbB; source: synthetic peptide
Kd (Escherichia coli DsbA): 10.9 µM
